Assay results taken from publication PMC11563578 (eLife, 2024).
Blank lines part the entries; values can stand above or below the binder they belong to.

Biological target: T1, RNA polymerase II subunit Rpb1 (S. cerevisiae, UniProt P04050 1-1733)
T1 construct: Rpb1, largest subunit of yeast RNA polymerase II; source: endogenous, S. cerevisiae; also the Δrpb4 RPB2-HFH strain
Assay: cross-linking; affinity-purified holo-pol II and ΔRpb4 pol II cross-linked with C1q2/C2q2 Q2linkers in a crosslinker swapping experiment (experiments I and II), pooled, MS; crosslinks identified with pLink2 and Nexus against the 12 pol II subunits
Conditions: both partners purified

T1 sequence (P04050 whole entry): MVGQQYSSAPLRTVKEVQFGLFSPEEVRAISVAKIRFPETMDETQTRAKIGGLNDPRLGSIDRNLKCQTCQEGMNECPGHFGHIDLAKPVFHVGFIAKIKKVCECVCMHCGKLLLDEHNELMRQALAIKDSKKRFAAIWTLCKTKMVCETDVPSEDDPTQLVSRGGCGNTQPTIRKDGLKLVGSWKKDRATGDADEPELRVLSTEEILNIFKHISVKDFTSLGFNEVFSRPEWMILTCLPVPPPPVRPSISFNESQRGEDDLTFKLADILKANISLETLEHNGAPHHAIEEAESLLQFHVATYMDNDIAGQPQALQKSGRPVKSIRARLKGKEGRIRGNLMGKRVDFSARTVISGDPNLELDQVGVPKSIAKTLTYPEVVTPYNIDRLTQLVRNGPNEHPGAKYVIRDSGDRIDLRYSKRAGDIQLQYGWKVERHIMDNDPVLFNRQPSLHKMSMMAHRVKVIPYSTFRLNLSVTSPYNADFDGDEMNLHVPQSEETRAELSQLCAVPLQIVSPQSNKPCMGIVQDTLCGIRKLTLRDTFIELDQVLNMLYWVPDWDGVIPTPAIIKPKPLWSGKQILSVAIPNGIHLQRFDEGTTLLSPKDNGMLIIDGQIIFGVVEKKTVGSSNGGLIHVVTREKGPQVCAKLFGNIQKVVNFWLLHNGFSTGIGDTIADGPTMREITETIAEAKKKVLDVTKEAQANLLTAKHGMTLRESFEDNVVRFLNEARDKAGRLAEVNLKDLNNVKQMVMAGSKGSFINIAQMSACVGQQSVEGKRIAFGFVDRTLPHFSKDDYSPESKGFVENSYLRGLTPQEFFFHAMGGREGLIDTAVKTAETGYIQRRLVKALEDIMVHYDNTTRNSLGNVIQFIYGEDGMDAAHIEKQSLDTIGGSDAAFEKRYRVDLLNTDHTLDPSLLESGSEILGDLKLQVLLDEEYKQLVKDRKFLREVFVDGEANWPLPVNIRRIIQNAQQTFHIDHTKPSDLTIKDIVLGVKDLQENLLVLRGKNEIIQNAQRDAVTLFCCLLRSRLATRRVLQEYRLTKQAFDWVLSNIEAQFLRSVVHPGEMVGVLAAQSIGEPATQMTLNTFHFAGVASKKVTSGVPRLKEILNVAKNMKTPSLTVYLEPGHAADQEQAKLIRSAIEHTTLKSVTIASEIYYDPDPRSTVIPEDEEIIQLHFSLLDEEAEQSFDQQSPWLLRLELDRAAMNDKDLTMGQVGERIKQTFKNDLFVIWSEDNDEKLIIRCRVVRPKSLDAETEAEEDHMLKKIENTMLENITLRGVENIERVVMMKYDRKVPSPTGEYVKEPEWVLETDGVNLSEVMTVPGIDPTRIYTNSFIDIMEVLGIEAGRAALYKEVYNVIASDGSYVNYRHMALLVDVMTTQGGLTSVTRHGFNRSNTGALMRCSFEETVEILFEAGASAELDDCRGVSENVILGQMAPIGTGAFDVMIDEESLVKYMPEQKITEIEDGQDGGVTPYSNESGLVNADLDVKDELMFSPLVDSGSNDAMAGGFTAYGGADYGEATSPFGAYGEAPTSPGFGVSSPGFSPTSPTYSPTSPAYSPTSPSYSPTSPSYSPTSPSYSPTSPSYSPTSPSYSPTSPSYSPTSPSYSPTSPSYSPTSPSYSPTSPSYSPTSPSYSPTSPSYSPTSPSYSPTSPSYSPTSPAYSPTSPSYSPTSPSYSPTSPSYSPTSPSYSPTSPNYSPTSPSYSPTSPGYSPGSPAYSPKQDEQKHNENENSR

binding result: binds
B1: RNA polymerase II subunit Rpb7 (natural protein, S. cerevisiae, UniProt P34087 1-171, looked up)
chain: MFFIKDLSLNITLHPSFFGPRMKQYLKTKLLEEVEGSCTGKFGYILCVLDYDNIDIQRGRILPTDGSAEFNVKYRAVVFKPFKGEVVDGTVVSCSQHGFEVQVGPMKVFVTKHLMPQDLTFNAGSNPPSYQSSEDVITIKSRIRVKIEGCISQVSSIHAIGSIKEDYLGAI
notes: Rpb7, subunit of yeast RNA polymerase II; also called Rbp7; source: endogenous, S. cerevisiae; sub-stoichiometric from the Δrpb4 RPB2-HFH strain

binding result: binds
B2: RNA polymerase II subunit Rpb9 (natural protein, S. cerevisiae, UniProt P27999 1-122, looked up)
chain: MTTFRFCRDCNNMLYPREDKENNRLLFECRTCSYVEEAGSPLVYRHELITNIGETAGVVQDIGSDPTLPRSDRECPKCHSRENVFFQSQQRRKDTSMVLFFVCLSCSHIFTSDQKNKRTQFS
notes: Rpb9, subunit of yeast RNA polymerase II; source: endogenous, S. cerevisiae; also the Δrpb4 RPB2-HFH strain
